Test results taken from patent US20090068234A1 (US Dept. of Health and Human Services, published 2009).

Molecular target: OFA alone (control OFA construct, not fused to a chemoattractant) (murine, UniProt P14206 1-295)
Test: ligand binding-internalization assay on iDC, flow cytometry (data not shown)
Procedure: The ligand binding-internalization assays were performed with iDC or splenocytes (1×10⁵) blocked with mouse serum in PBS containing 2% BSA. Fusion proteins (10-50 μg/ml) were incubated in complete medium for Ih at 37° C. or at 4° C. To detect bound proteins, the cells were incubated with anti-c-myc mAb or isotype-matched, purified mouse IgG1, followed with α-mouse Ig-FITC mAb incubation (Jackson ImmunoResearch Laboratory, Bar Harbor, Me.) for 20 min each, and then fixed with 1% paraformaldehyde. The binding-internalization was assessed via flow cytometry on a FACScan (Becton Dickinson, Franklin Lakes, N.J.) using CellQuest software.

B1: CCR6 expressed on murine BM iDC (receptor)
chain: MNSTESYFGTDDYDNTEYYSIPPDHGPCSLEEVRNFTKVFVPIAYSLICVFGLLGNIMVVMTFAFYKKARSMTDVYLLNMAITDILFVLTLPFWAVTHATNTWVFSDALCKLMKGTYAVNFNCGMLLLACISMDRYIAIVQATKSFRVRSRTLTHSKVICVAVWFISIIISSPTFIFNKKYELQDRDVCEPRYRSVSEPITWKLLGMGLELFFGFFTPLLFMVFCYLFIIKTLVQAQNSKRHRAIRVVIAVVLVFLACQIPHNMVLLVTAVNTGKVGRSCSTEKVLAYTRNVAEVLAFLHCCLNPVLYAFIGQKFRNYFMKIMKDVWCMRRKNKMPGFLCARVYSESYISRQTSETVENDNASSFTM
notes: whole, on cells
  binding result: no binding
